B3: Vps60 (natural protein, S. cerevisiae, UniProt Q03390 1-229, looked up)
chain: MNRIFGYGNKKSHDQLLQESNQSMNQAQQSLSNRISQLDTQIAQLNFQLQNIQKNLQRSNNKQPSLRKQALKILNKRKQLENMKDSLDSQSWSMTQAQLTNDNLQNTMITINALKQTNNAMKAQYGKINIDKLQDMQDEMLDLIEQGDELQEVLAMNNNSGELDDISDAELDAELDALAQEDFTLPTSENSLGNDMPSYLLGANAPPAFIDEEPNLDTEDKNKALESAQ
modifications: TFP-Atto-565 label (Atto565-Vps60) in the fluorescence assays; Alexa488-Vps60 also named; labeled proteins were mixed 1:1 with unlabeled proteins
notes: Vps60 (Mos10), ESCRT-III subunit of yeast; construct pGEX4T-Vps60; also called Mos10; Atto565-Vps60; source: Bl21 Escherichia coli (pGEX4T-Vps60), purified on GST-resin, on-column cleavage with TEV protease

The data set “Vps60” concerns the target B3. As to the kind of experiment: negative-stain electron microscopy; LUVs (DOPC:DOPS 6:4) in 20 mM Tris, pH 6.8, 200 mM NaCl, 1 mM MgCl2, incubated with 250 nM Vps60 for 1 h at 4°C, alone or with subsets of ESCRT-III subunits (Vps2 and Vps24; Vps2, Vps24 and Did2); filaments imaged after uranyl acetate staining. Particulars: both partners purified.
For the next data set, the target named is T1, Vps2 (UniProt P36108 1-232, TFP-AlexaFluor-488, TFP-Atto-565 or NHS-Atto-647N label, by experiment; labeled proteins were mixed 1:1 with unlabeled proteins).
T1 construct: Vps2, ESCRT-III subunit (human homolog CHMP2A); The yeast protein is surmised from the yeast nomenclature; also called Alexa488-Vps2; Vps2-Alex488
T1 sequence (looked up): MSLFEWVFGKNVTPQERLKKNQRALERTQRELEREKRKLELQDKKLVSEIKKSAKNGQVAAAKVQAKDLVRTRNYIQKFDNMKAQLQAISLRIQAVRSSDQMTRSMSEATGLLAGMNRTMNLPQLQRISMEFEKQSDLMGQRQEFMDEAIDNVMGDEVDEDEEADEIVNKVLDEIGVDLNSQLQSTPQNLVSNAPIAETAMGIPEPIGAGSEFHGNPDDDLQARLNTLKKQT
Description: recruitment on supported lipid bilayers, confocal fluorescence microscopy; SLBs covered with both Alexa488-Snf7 patches and Atto565-Vps60, incubated with Atto647-Vps2, Vps24 and Did2; time-lapse. The conditions noted are these: both partners purified.

Data set [1] concerns the molecule itself. Description: negative-stain electron microscopy; LUVs (DOPC:DOPS 6:4) in 20 mM Tris, pH 6.8, 200 mM NaCl, 1 mM MgCl2, incubated with 250 nM Vps60 for 1 h at 4°C, alone or with subsets of ESCRT-III subunits (Vps2 and Vps24; Vps2, Vps24 and Did2); filaments imaged after uranyl acetate staining.

Three molecules from paper PMC10538557, “Vps60 initiates alternative ESCRT-III filaments” (The Journal of Cell Biology, 2023) can be followed below.

B1: Vps24 (natural protein, UniProt P36095 1-224, looked up)
chain: MDYIKKAIWGPDPKEQQRRIRSVLRKNGRNIEKSLRELTVLQNKTQQLIKKSAKKNDVRTVRLYAKELYQINKQYDRMYTSRAQLDSVRMKIDEAIRMNTLSNQMADSAGLMREVNSLVRLPQLRNTMIELEKELMKSGIISEMVDDTMESVGDVGEEMDEAVDEEVNKIVEQYTNEKFKNVDQVPTVELAANEEEQEIPDEKVDEEADRMVNEMRERLRALQN
modifications: TFP-AlexaFluor-488 label where detected; labeled proteins were mixed 1:1 with unlabeled proteins
notes: Vps24, ESCRT-III subunit (human homolog CHMP3); The yeast protein is surmised from the yeast nomenclature; also called Alexa488-Vps24
As for B1, the binding result with Vps60 was “binds”.

B2: Did2 (natural protein, UniProt P69771 1-204, looked up)
chain: MSRNSAAGLENTLFQLKFTSKQLQKQANKASKEEKQETNKLKRALNENEDISRIYASNAIRKKNERLQLLKLASRVDSVASRVQTAVTMRQVSASMGQVCKGMDKALQNMNLQQITMIMDKFEQQFEDLDTSVNVYEDMGVNSDAMLVDNDKVDELMSKVADENGMELKQSAKLDNVPEIKAKEVNVDDEKEDKLAQRLRALRG
modifications: maleimide-AlexFluor-488 label where detected; labeled proteins were mixed 1:1 with unlabeled proteins
notes: Did2, ESCRT-III subunit (human homolog CHMP1B); The yeast protein is surmised from the yeast nomenclature; also called Alexa488-Did2; Did2-Atto565
In the case of B2, in the data set with Vps60, the binding result is on record as “binds”.

On to B3, for which the binding result (with Vps2; in data set [1]) was “binds” in each case.
